Measured values reported in IntAct's records for PubMed 16777958.

Target: ack1_mouse Tnk2 (UniProt O54967)
Sequence (O54967 whole entry): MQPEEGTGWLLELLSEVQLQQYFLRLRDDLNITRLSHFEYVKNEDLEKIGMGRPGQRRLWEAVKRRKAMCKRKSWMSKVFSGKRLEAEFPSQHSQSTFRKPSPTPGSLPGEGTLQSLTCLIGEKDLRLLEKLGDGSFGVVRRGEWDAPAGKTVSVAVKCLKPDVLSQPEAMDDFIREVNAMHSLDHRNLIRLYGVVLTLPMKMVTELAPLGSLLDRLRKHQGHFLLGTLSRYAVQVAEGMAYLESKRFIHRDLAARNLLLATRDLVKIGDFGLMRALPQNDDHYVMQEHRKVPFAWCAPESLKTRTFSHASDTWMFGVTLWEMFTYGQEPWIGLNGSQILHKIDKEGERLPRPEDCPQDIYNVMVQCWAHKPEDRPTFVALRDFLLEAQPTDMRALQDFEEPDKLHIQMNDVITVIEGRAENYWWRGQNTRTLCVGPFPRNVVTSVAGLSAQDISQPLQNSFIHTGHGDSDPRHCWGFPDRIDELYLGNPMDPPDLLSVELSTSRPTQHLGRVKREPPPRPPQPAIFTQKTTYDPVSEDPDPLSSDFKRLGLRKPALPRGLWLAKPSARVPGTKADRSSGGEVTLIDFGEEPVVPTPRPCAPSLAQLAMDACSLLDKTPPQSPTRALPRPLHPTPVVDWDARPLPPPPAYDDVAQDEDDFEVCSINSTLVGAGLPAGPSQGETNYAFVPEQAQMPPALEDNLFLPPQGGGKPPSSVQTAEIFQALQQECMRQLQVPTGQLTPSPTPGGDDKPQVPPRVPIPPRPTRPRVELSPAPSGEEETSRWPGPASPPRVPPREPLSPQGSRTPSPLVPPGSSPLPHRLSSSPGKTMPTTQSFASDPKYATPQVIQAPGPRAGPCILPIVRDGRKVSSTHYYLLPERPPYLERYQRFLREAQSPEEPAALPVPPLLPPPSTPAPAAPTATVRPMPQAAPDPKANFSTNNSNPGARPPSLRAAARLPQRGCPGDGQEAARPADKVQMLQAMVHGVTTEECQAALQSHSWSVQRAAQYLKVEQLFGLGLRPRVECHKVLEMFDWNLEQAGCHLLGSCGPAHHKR

effect of a mutation on the interaction: disrupting interaction strength
Substance: SH2/SH3 adapter protein NCK1 (Homo sapiens) (from UniProt P16333-1) R308A
